According to article PMC3618350 (G3: Genes|Genomes|Genetics, 2013):
Like-named read-outs stand apart in the source and are kept apart here.

Legend:
Rad30 [1] = biological target: T1, Rad30 (S. cerevisiae, UniProt Q04049 1-632); experiment: two-hybrid
T1 sequence (looked up): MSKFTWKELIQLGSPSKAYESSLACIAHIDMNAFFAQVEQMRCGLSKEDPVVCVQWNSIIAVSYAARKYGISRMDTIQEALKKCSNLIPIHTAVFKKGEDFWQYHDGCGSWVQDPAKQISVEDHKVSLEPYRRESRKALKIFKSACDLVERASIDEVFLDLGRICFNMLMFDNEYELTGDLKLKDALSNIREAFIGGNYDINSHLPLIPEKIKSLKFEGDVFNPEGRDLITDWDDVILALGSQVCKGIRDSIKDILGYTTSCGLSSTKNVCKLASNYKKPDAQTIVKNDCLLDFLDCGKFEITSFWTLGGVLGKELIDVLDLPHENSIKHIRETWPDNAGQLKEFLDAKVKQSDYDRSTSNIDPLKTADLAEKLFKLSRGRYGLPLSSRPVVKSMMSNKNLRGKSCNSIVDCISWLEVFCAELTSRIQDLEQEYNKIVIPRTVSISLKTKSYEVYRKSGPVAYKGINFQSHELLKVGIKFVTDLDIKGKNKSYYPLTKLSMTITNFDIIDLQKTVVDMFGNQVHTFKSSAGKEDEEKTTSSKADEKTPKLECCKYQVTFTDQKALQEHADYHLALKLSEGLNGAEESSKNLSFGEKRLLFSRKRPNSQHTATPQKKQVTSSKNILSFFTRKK

Rad30 [2] = biological target: T1, Rad30; experiment: two-hybrid; remark: listed apart in the source

fold change in reporter activity over the highest negative control (Rad30 [1]): 1.47 fold | fold change in reporter activity over the highest negative control (Rad30 [2]): 3.07 fold
B1: Rev1 (enzyme, S. cerevisiae, UniProt P12689 1-985, looked up)
chain: MGEHGGLVDLLDSDLEYSINRETPDKNNCLSQQSVNDSHLTAKTGGLNARSFLSTLSDDSLIEYVNQLSQTNKNNSNPTAGTLRFTTKNISCDELHADLGGGEDSPIARSVIEIQESDSNGDDVKKNTVYTREAYFHEKAHGQTLQDQILKDQYKDQISSQSSKIFKNCVIYINGYTKPGRLQLHEMIVLHGGKFLHYLSSKKTVTHIVASNLPLKKRIEFANYKVVSPDWIVDSVKEARLLPWQNYSLTSKLDEQQKKLDNCKTVNSIPLPSETSLHKGSKCVGSALLPVEQQSPVNLNNLEAKRIVACDDPDFLTSYFAHSRLHHLSAWKANLKDKFLNENIHKYTKITDKDTYIIFHIDFDCFFATVAYLCRSSSFSACDFKRDPIVVCHGTKNSDIASCNYVARSYGIKNGMWVSQAEKMLPNGIKLISLPYTFEQFQLKSEAFYSTLKRLNIFNLILPISIDEAVCVRIIPDNIHNTNTLNARLCEEIRQEIFQGTNGCTVSIGCSDSLVLARLALKMAKPNGYNITFKSNLSEEFWSSFKLDDLPGVGHSTLSRLESTFDSPHSLNDLRKRYTLDALKASVGSKLGMKIHLALQGQDDEESLKILYDPKEVLQRKSLSIDINWGIRFKNITQVDLFIERGCQYLLEKLNEINKTTSQITLKLMRRCKDAPIEPPKYMGMGRCDSFSRSSRLGIPTNEFGIIATEMKSLYRTLGCPPMELRGLALQFNKLVDVGPDNNQLKLRLPFKTIVTNRAFEALPEDVKNDINNEFEKRNYKRKESGLTSNSLSSKKKGFAISRLEVNDLPSTMEEQFMNELPTQIRAEVRHDLRIQKKIQQTKLGNLQEKIKRREESLQNEKNHFMGQNSIFQPIKFQNLTRFKKICQLVKQWVAETLGDGGPHEKDVKLFVKYLIKLCDSNRVHLVLHLSNLISRELNLCAFLNQDHSGFQTWERILLNDIIPLLNRNKHTYQTVRKLDMDFEV
